# Laboratory results as given in PMC4112278.
# Assays:
# Experiment in all cases: SEC
# [1] = biological target: HIV-1_(ITM1_4) gp140 Env trimer (HIV-1 (isolate ITM1_4, clade A))
# [2] = biological target: HIV-1_(NIBSC40-9) gp140 Env trimer (HIV-1 (isolate NIBSC 40-9, clade A))
# [3] = biological target: HIV-1_(UG37) gp140 Env trimer (HIV-1 (isolate UG37, clade A))
# [4] = biological target: HIV-1_(YU2) gp140 Env trimer (HIV-1 (isolate YU2))
# [5] = biological target: SIV_(mac239) gp140 Env trimer (SIV_(mac239))
substance,measurement,setting,value
HIV-1_(ITM1_4) gp140 Env trimer (domain or fragment),stoichiometry N,[1],3
HIV-1_(NIBSC40-9) gp140 Env trimer (domain or fragment),stoichiometry N,[2],3
HIV-1_(UG37) gp140 Env trimer (domain or fragment),stoichiometry N,[3],3
HIV-1_(YU2) gp140 Env trimer (domain or fragment),stoichiometry N,[4],3
SIV_(mac239) gp140 Env trimer (domain or fragment),stoichiometry N,[5],3
